Reference: PMC3961267

Tested on: P266L T7 RNA polymerase (bacteriophage T7)
Experiment: fluorescence anisotropy
Conditions: Buffer A: 50 mM Tris-acetate, 50 mM sodium acetate, 10 mM magnesium acetate, 5 mM DTT, 25 C; pH not stated

TAMRA-labeled T7 consensus promoter DNA was tested, and the Kd was 3.6 nM.
